B1: mouse Liprin-α3 tSAM (residues 808–1114) (domain or fragment)
chain: not shown
notes: mouse Liprin-α3, tandem SAM domain (αN, SAM1-SAM3), residues 808-1114; also called WT; source: E. coli Rosetta (DE3), purified (Glutathione Sepharose, Resource Q, GST cleaved off by HRV3c protease, Superdex 200); not shown: GST, N-terminal, cleaved

Experiment [1] addresses T1, mouse CASK N-terminal kinase domain (residues 1–323) fused with the N-terminal His6-tag (mouse, UniProt O70589 1-323).
T1 construct: mouse CASK (calcium/calmodulin-dependent serine kinase), N-terminal kinase domain, residues 1-323; Cloned into pET21a, the same vector as the C-terminally tagged PTPδ D2-His6, yet the methods call this tag N-terminal; also called His6-CASK; N-terminal kinase domain of CASK; not shown: His6, N-terminal, kept
T1 sequence (looked up): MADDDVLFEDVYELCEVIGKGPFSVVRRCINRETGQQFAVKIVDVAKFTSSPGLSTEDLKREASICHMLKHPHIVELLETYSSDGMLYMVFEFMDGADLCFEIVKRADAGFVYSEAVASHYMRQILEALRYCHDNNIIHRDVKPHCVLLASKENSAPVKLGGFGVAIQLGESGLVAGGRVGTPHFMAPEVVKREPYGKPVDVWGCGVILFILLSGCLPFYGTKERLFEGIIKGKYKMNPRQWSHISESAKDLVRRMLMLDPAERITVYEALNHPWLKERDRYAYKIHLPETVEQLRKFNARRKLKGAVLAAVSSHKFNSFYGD
In words: pull-down; GST pull-down (Fig. 5c): Liprin-α3 tSAM and/or His6-CASK mixed with GST-PTPδ D2 at equimolar ratio (20 µM) in PBS with 0.1% Triton X-100, then immobilised on Glutathione Sepharose FF; eluted with glutathione; SDS-PAGE, Coomassie. To be noted: both partners purified.

In experiment [2] the target is B1. In words: SPR; Biacore T200, 25 °C, 10 mM Hepes-NaOH pH 7.5, 150 mM NaCl, 0.005% Tween-20; wild-type or mutant PTPδ D2-His6 amine-coupled on a CM5 chip; wild-type or mutant Liprin-α3 tSAM injected, twofold dilutions from 40 µM to 39 nM; equilibrium KD. The settings on record: both partners purified.

On to B1, for which the binding result in experiment [1] was “binds”.

B2: PTPδ D2-His6 Y1506A (domain or fragment)
chain: NTEVPARNLYAYIQKLTQIETGENVTGMELEFKRLASSKAHTSRFISANLPCNKFKNRLVNIMPYESTRVCLQPIRGVEGSDYINASFLDGYRQQKAYIATQGPLAETTEDFWRMLWEHNSTIVVMLTKLREMGREKCHQYWPAERSARYQYFVVDPMAEYNMPQYILREFKVTDARDGQSRTVRQFQFTDWPEQGVPKSGEGFIDFIGQVHKTKEQFGQDGPISVHCSAGVGRTGVFITLSIVLERMRYEGVVDIFQTVKMLRTQRPAMVQTEDQYQFCYRAALEYLGSFDHAAT
By Kd is commonly meant the equilibrium constant for the complex coming apart. Read a high Kd as a looser complex. B2 registered an equilibrium dissociation constant (Kd) in experiment [2] of 11.4 µM.

B3: PTPδ D2-His6 D1504A (domain or fragment)
chain: NTEVPARNLYAYIQKLTQIETGENVTGMELEFKRLASSKAHTSRFISANLPCNKFKNRLVNIMPYESTRVCLQPIRGVEGSDYINASFLDGYRQQKAYIATQGPLAETTEDFWRMLWEHNSTIVVMLTKLREMGREKCHQYWPAERSARYQYFVVDPMAEYNMPQYILREFKVTDARDGQSRTVRQFQFTDWPEQGVPKSGEGFIDFIGQVHKTKEQFGQDGPISVHCSAGVGRTGVFITLSIVLERMRYEGVVDIFQTVKMLRTQRPAMVQTEDQYQFCYRAALEYLGSFAHYAT
In turn, B3 showed an equilibrium dissociation constant (Kd) in experiment [2] of 18 µM. This Kd lies about 1.6-fold higher than the previous one.

B4: PTPδ D2-His6 F1399A (domain or fragment)
chain: NTEVPARNLYAYIQKLTQIETGENVTGMELEFKRLASSKAHTSRFISANLPCNKFKNRLVNIMPYESTRVCLQPIRGVEGSDYINASFLDGYRQQKAYIATQGPLAETTEDFWRMLWEHNSTIVVMLTKLREMGREKCHQYWPAERSARYQYFVVDPMAEYNMPQYILREFKVTDARDGQSRTVRQAQFTDWPEQGVPKSGEGFIDFIGQVHKTKEQFGQDGPISVHCSAGVGRTGVFITLSIVLERMRYEGVVDIFQTVKMLRTQRPAMVQTEDQYQFCYRAALEYLGSFDHYAT
Turning to B4, the Kd in experiment [2] is 32 µM.

B5: PTPδ D2-His6 L1380A (domain or fragment)
chain: NTEVPARNLYAYIQKLTQIETGENVTGMELEFKRLASSKAHTSRFISANLPCNKFKNRLVNIMPYESTRVCLQPIRGVEGSDYINASFLDGYRQQKAYIATQGPLAETTEDFWRMLWEHNSTIVVMLTKLREMGREKCHQYWPAERSARYQYFVVDPMAEYNMPQYIAREFKVTDARDGQSRTVRQFQFTDWPEQGVPKSGEGFIDFIGQVHKTKEQFGQDGPISVHCSAGVGRTGVFITLSIVLERMRYEGVVDIFQTVKMLRTQRPAMVQTEDQYQFCYRAALEYLGSFDHYAT
As for B5, the equilibrium dissociation constant (Kd) in experiment [2] is over 40 µM.

Values taken from article PMC6994669 (Nature Communications, 2020).
